The text below walks through data of patent publication US20140148381A1 (INDIANA UNIVERSITY RESEARCH AND TECHNOLOGY, published 2014).

For data set [1], the target named is HBV wild type core protein expressed in Huh7 cells (subtype ayw) (Hepatitis B virus, subtype ayw) (UniProt P03146). Nature of the data set: cell-based or functional assay.
For data set [2], the target named is HBV Cp149-WT (wild type HBV core protein assembly domain, N-terminal first 149 residues), dimer (Hepatitis B virus, adyw strain). Nature of the data set: SEC of capsid and dimer after 72 h assembly at 100 mM NaCl, 23° C.; self-association of Cp149 dimers.
The target is the same in data set [3]. Nature of the data set: SEC of capsid and dimer after 72 h assembly at 100 mM NaCl, 23° C.; mean equilibrium dimer concentration.
The target is the same in data set [4]. Nature of the data set: SEC of assembly reactions, 100 mM NaCl, 23° C.
Data set [5] deals with the molecule itself. The data set is described as follows: SEC of assembly reactions, 100 mM NaCl, 72 h, 23° C.; 100 mM NaCl, 72 h, 23° C.; ratio of WT to V124W pseudo-critical concentration.
Data set [6] concerns the molecule itself. Nature of the data set: SEC of capsid and dimer after 72 h assembly at 100 mM NaCl, 23° C.; self-association of Cp149-V124W dimers; 100 mM NaCl, 23° C., SEC after 72 h equilibration; Table 3 value.
Data set [7] concerns the molecule itself. The data set is described as follows: thermodynamic calculation from SEC, 23° C., 100 mM NaCl; 100 mM NaCl, 23° C.; value in the text, which differs from Table 3.

Consider “HBV V124W core protein expressed in Huh7 cells (subtype ayw) (from UniProt P03146 1-183)”, for which, in data set [1], the dlDNA yield, Southern blot of encapsidated DNA, WT:V124W = 1:1 co-transfection in Huh7 cells is 23 % of WT; the rcDNA yield, Southern blot of encapsidated DNA, WT:V124W = 1:1 co-transfection in Huh7 cells is 8 % of WT; the ssDNA yield, Southern blot of encapsidated DNA, WT:V124W = 1:1 co-transfection in Huh7 cells was 37 % of WT; the total DNA yield, Southern blot of encapsidated DNA, WT:V124W = 1:1 co-transfection in Huh7 cells is 31 % of WT.

“HBV Cp149-WT (wild type HBV core protein assembly domain, N-terminal first 149 residues), dimer” returned a ΔGcontact in data set [2] of -2.74 kcal/mol. Besides, in data set [3], the KD, apparent stood at 43.3 µM. This molecule returned a pseudo-critical concentration in data set [4] of 43.6 µM.

B1: HBV Cp149-V124W (core protein assembly domain with V124W), dimer (other)
chain: MDIDPYKEFGATVELLSFLPSDFFPSVRDLLDTAAALYRDALESPEHCSPHHTALRQAILCWGDLMTLATWVGTNLEDPASRDLVVSYVNTNVGLKFRQLLWFHISCLTFGRETVLEYLVSFGWWIRTPPAYRPPNAPILSTLPETTVV
notes: also called HBV Cpdominant 1; Cpdominant 1
With B1, the “fold difference of pseudo-critical concentration against WT” value in data set [5] amounted to 40 fold. Further, the ΔGcontact in data set [6] is -3.84 kcal/mol. For the same molecule, in data set [7], the ΔGcont is -3.73 kcal/mol.
